B1: HDV Ribozyme (parent)
chain: GGCCGGCAUGGUCCCAGCCUCCUCGCUGGCGCCGGCUGGGCAACAUUCCGAGGGGACCGUCCCCUCGGUAAUGGCGAAUGGGACCCA

The variants in the data set derive from B1. The data set can be described thus: self-cleavage, relative activity (ratio to wild type); higher = more cleavage; co-transcriptional.
For the variant GGCCGGCAUGGUCACAGCCUCCUCGCUGGCGCCGGCCGGGCAACAUUCCGAGGGGACCGUCCCCUCGGUAAUGGCGAAUGGGACCCA, the self-cleavage was determined as 0.504. Then GGCCGGCAUGGUCCCAGCCUCCGCGCUGGCGCCGGCUGGGCAACAUUCCGAGGGGACCGUCCCCUCGGUAAUGGCGAAUUGGACCCA, with 0.129; and GGCCGGCAUGGUCCCAGCCUCUUCGCUGGCGCCGGCUGGGCAACAUUCCGAGGGGACCGUCCCAUCGGUAAUGGCGAAUGGGACCCA, with 0.786; and GGCCGGCAUGGUCCCAGCCUCCUCGCUGGCGCCGGCUGGGCAAUAUUCCGAGGGGACGGUCCCCUCGGUAAUGGCGAAUGGGACCCA, with 0.712.

For GGCCGGCAUGGUCCGAGCCUCCUAGCUGGCGCCGGCUGGGCAACAUUCCGAGGGGACCGUCCCCUCGGUAAUGGCGAAUGGGACCCA, the self-cleavage is 0.482. Take GGCCGGCAUGGUCCCAGCCUCCUCGCUGGCGCCGGCUGGGCAACAUUCCGACGGGACCGUCCCCUCGAUAAUGGCGAAUGGGACCCA: the self-cleavage came to 0.564. For the variant GGCCGGCAUGGUCCCAGCCUCCUCGCUGGCGCCGGCUGGUCAACAUUCCGAGGGGACCGUCCCCUCGGUAAUGGCGAAUGUGACCCA, the self-cleavage came out at 0.0989. Consider GGCCGGCAUGGUCCCAGCCUCCUCGCUGGCGCCGGCUGGGCAACAUUCCGAGGGGACCGUCUCCUCGGUAAUGGUGAAUGGGACCCA, for which the self-cleavage is 0.173. Take GGCCGGCAUGGUCCCAGCCUCCUCGCUGGCGCCGGCUGGGCAACAUUCCGAGUGGACCGUCCCCUCGGUAAUGGCGAAUGCGACCCA: the self-cleavage was 0.385.

With GGCCGGCUUGGUCCCAGCCUCCUCGCUGGCGCCGGCUGGGCAACAUUCCGAGGGGACCGUCCCCUCGGUAAUGGCGAAUGGGACCUA, the self-cleavage turned out to be 0.997.

Regarding GGCCGGCAUGGUCCCCGCCUCCUCGCUGGCGCCGGCUGGGCAACAUUCCGAGGGGACCGUCCCCUCGGUAAUGGAGAAUGGGACCCA, the self-cleavage stood at 0.133.

Regarding GGACGGCAUGGUCCCAGCCUCCUCGCUGGCGCCGGCUGGGCAACAUUCCGAGGGGACCGUCCCCUCGGUAAUGGCGAAUGGGACUCA, the self-cleavage turned out to be 0.626. Then GGCCGUCAUGGUCCCAGCCUCCUCGCUGGCGCCGGCUGGGCAACAUUCCGAGGGGACCGUCCCCUCGGUAAUGGCGAAUGGUACCCA, with 0. In the case of GGCCGGCAUGGUCCCAGCCUCCUCGCUGGCGCCGGCUGGGCUACAUUCCGAGGGGACCGUCCACUCGGUAAUGGCGAAUGGGACCCA, the self-cleavage was 0.325. With GGCCGGCAUGGUCCCAGCCUCCUCGCUGGCGCCGGCUGGGCAACAUUCCGAGGGGACCGUCCCCUCGGUAAUGUCGAAGGGGACCCA, the self-cleavage amounted to 0.199.

For GGCCGGCAUGGUCCCAGCCUCCUCGCUGGCACCGGCUAGGCAACAUUCCGAGGGGACCGUCCCCUCGGUAAUGGCGAAUGGGACCCA, the self-cleavage was determined as 0.14. Turning to GGCCGGCUUGGUCCCAGCCUCCUCGCUGGCGCCGGCUGGGCAACAUUCCGAGGGGACCGUCCCCACGGUAAUGGCGAAUGGGACCCA, the self-cleavage worked out at 0.617. On to GGCCGGCAUGGUCCCAGACUCCUCGCUGGCGCCGGCGGGGCAACAUUCCGAGGGGACCGUCCCCUCGGUAAUGGCGAAUGGGACCCA, for which the self-cleavage is 0.185. Regarding GGCCGGCAUGGUACCAGCCUCCUCGCUGGCGCCGGCUGGGCAACAUUCCGAGGGGCCCGUCCCCUCGGUAAUGGCGAAUGGGACCCA, the self-cleavage worked out at 0.156. With GGCCGGCAUGGUCCCAGCCUCCUCCCUGGCGCCGGCUGGGCAACAUUCCGAGGGGACCGUCCCCUCGGUAAUGGCGAAUGGCACCCA the figure was 0.0326. GGCCGGCAUGGUCCCAGCCUCCUCGCUGGCGCCGGCUGGGCAACAUUCCGAGGGGUCCGUCCCCUCGGUAGUGGCGAAUGGGACCCA: the self-cleavage is 0.762. Consider AGCCGGCAUGGUCCCAGCCUCCUCGCUGGCGCCGGCUGGGCAACAUUCCGAGGGGACCGUCCCCUCGGUAUUGGCGAAUGGGACCCA, for which the self-cleavage worked out at 0.256.

For GGCCGGCAUGGUCCCAGCCUCCUCGCUGGCCCCGGCUGGGCAACAUUCCGAGGGGACCGUCCCCUCGGUAAUGGCGAAUGGGAUCCA, the self-cleavage was determined as 0.295. With GGCAGGCAUGGUCCCAGCCUCCUCGCUGGCGCCGGCUGGGCAACAUUCCGAGGGGACCGUCCCCUCGGUAAUGGCGGAUGGGACCCA the figure was 0.0369. With GGCCGGCAUGGUCCCAGCCUCCUCGCUGGAGCCGGCUGGGCAACAUUCCGAGGGGACCCUCCCCUCGGUAAUGGCGAAUGGGACCCA, the self-cleavage is 0.58.

With GGCCGACAUGGUCCCAGCCUCCUCGCUGGCGCCGGCUGGGCAACAUUCCGAGGGGACCGUCCCCUCGGUAAUGGCGAAUGCGACCCA, the self-cleavage turned out to be 0.0378. Take GGCCGGCAUGGUCCCAGCCUCCUCGCUGGCGCCGGCGGGGCAACAUUCCGAGGGGACCGUCCCCUCGGUAAUGGCGAAUGGGAUCCA: the self-cleavage turned out to be 0.111.

Turning to GGCCGGCUUGGUCCCAGCCUCCUCGCUGGCGCCGGCUGGGCAACAUUCCGAGGGGACCUUCCCCUCGGUAAUGGCGAAUGGGACCCA, the self-cleavage stood at 1.04. GGCCGGGAUGGUCCCAGCCUCCUCGCUGGCGCCGGCUUGGCAACAUUCCGAGGGGACCGUCCCCUCGGUAAUGGCGAAUGGGACCCA: the self-cleavage came to 0.0692. Then GGCCGGCAUGGUCCCAGCCUCCUCGCUGGCGCCGGCUGGGCAACAUUUAGAGGGGACCGUCCCCUCGGUAAUGGCGAAUGGGACCCA, with 1.05; and GGCCGGCAUGGUCCCAGCCUCAUCGCUGGCGCCGGCUGGGCAACAUUCCGAGGGGACCGUCCCCUCGGUACUGGCGAAUGGGACCCA, with 0.0405. GGCUGGCAUGGUCCCAGCCUCCUCGCUGGCGCCGGCUGGGCAACAUUCCGAGGGGACCGUCCACUCGGUAAUGGCGAAUGGGACCCA: the self-cleavage worked out at 0.95.

For the origin of these results see the RNAGym collection of RNA variant scans (doi:10.7554/elife.80360).
